Earlier results, collected in patent EP0759087B1, “COMPOSITIONS AND METHODS FOR TARGETING GENE DELIVERY VEHICLES” (CHIRON CORPORATION, priority 1994, dated 1995).
Where no end group is shown, it is not given here.

Biological target: receptor on melanocytes (Homo sapiens, UniProt Q01726)
Conditions: no source given, read-out: receptor affinity (KD)

receptor on melanocytes, sequence (Q01726 whole entry): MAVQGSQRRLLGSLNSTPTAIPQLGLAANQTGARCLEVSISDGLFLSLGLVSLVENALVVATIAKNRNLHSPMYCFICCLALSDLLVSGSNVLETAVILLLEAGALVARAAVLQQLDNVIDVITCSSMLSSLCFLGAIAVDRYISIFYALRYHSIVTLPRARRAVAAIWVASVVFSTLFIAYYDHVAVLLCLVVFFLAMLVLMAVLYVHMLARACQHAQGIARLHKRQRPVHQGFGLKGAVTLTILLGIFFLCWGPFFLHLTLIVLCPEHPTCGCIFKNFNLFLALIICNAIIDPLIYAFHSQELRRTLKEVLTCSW

S-Y-S-M-E-H-F-R-W-G-L-P-V-NH2 (SYSMEHFRWGLPV-NH2) [MSH, 13 amino acid peptide that is specifically recognized by a receptor on melanocytes]
Kd: ~10 nM
